Reference: EP4491630A1, “T-CELL RECEPTOR FOR ACUTE MYELOID LEUKEMIA (AML)” (Universitetet I Oslo, priority 2023, dated 2025)
Ends that are not written are not given here.

What was measured:
[1] = molecular target: HLA-A2 presenting the cognate NY-ESO1 peptide (human) (UniProt P78358); experiment: cell-based or functional assay
TCR^FLT3D/Y cells = details: 28 candidate 9mers from the human proteome pulsed on K562 cells
Method: TCR-transduced T cells were co-cultured with cell lines or primary patient tumor cells at an effector:target cell ratio of 1:2 (100,000:200,000 cells/well) and reactivity was investigated by measuring CD137 upregulation or release of IFN-γ. […] Cells were placed in round or flat bottom 96-well plates and after 18-20 h of co-incubation centrifuged at 700 g for 2 min. Supernatants were harvested for measurement of IFN-γ by ELISA, while cells were washed and stained with anti-CD137. In some experiments, transduced T cells were labeled with 0.75 µM CTV to distinguish them from target cells. Reagents for IFN-γ ELISA were acquired from BD Pharmingen or R&D Systems: mouse anti-human IFN-γ capture antibody (NIB42), Biotin Mouse Anti-Human IFN-γ detection antibody (4S.B3), streptavidin-HRP, stabilized tetramethylbenzidine and hydrogen peroxide as substrate solutions, sulfuric acid as stop solution, and recombinant human IFN-γ protein as standard. The assay was performed according to manufacturer's instructions.

[2] = molecular target: T1, LZTR1 peptide on HLA-A*02:01 (human); experiment: cytokine release
T1 peptide: AVISDAMYI

[3] = molecular target: T2, MED1 peptide on HLA-A*02:01 (human); experiment: cytokine release
T2 peptide: YITSDMFYV

[4] = molecular target: T3, PRADC1 peptide on HLA-A*02:01 (human); experiment: cytokine release
T3 peptide: AVDNDSFYV

[5] = molecular target: T4, FLT3 wild type peptide on HLA-A*02:01 (human); experiment: multimer staining
T4 peptide: DIMSDSNYV

[6] = molecular target: T5, FLT3 D835Y peptide on HLA-A*02:01 (human); experiment: CD137 upregulation; transduced T cells of 4 donors against HLA-A2-transduced K562 pulsed with titrated peptide; full-length, on cells
T5 peptide: YIMSDSNYV

## NY-ESO1-specific TCR 1G4
[1]
  T cell activation by peptide-pulsed target cells, EC50: 5.5 nM

## AVDNDSFYV [peptide 15]
TCR^FLT3D/Y cells
  activation of TCR^FLT3D/Y cells (IFN-γ production): activated

## YITSDMFYV [peptide 12]
TCR^FLT3D/Y cells
  activation of TCR^FLT3D/Y cells (IFN-γ production): activated

## AVISDAMYI [peptide 11]
TCR^FLT3D/Y cells
  activation of TCR^FLT3D/Y cells (IFN-γ production): activated

B1: TCR^FLT3D/Y (TCR, V domains shown)
Valpha: ELKVEQNPLFLSMQEGKNYTIYCNYSTTSDRLYWYRQDPGKSLESLFVLLSNGAVKQEGRLMASLDTKARLSTLHITAAVHDLSATYFCAVVGGSQGNLIFGKGTKLSVKP
Vbeta: DVKVTQSSRYLVKRTGEKVFLECVQDMDHENMFWYRQDPGLGLRLIYFSYDVKMKEKGDIPEGYSVSREKKERFSLILESASTNQTSMYLCASSLSPGGGYGYTFGSGTRLTVV
[2]
  binding result: recognises
[3]
  binding result: recognises
[4]
  binding result: recognises
[5]
  binding result: no recognition
[6]
  EC50 of peptide: 0.081 nM
